# Values of other authors as cited in PMC7550760.
# Molecular target: His84 (UniProt position 104, ACRVNHVTLSQ)
# Details: monomeric native-like protein implied; not stated
row,Substance,pKa
1,beta2-microglobulin deltaN6 variant (Homo sapiens; del1-6),5.9
2,"beta2-microglobulin (wild type, full length) (Homo sapiens)",4.1
